The data set concerns the molecule itself. The experiment in a line: SEC; oligomeric state of saMnmM in solution examined by size exclusion chromatography; conditions not given. (SEC sorts molecules by how far they enter the pores of the column.)

B1: Staphylococcus aureus MnmM (5-aminomethyl-2-thiouridine methyltransferase, formerly YtqB) (enzyme)
chain: MKLERILPFSKTLIKQHITPESIVVDATCGNGNDTLFLAEQVPEGHVYGFDIQDLALENTRDKVKDFNHVSLIKDGHENIEHHINDAHKGHIDAAIFNLGYLPKGDKSIVTKPDTTIQAINSLLSLMSIEGIIVLVIYHGHSEGQIEKHALLDYLSTLDQKHAQVLQYQFLNQRNHAPFICAIEKIS
notes: MnmM (YtqB) of Staphylococcus aureus, UniProt Q2FXG9; gene codon-optimized and synthesized; Truncated constructs are stated only for the plant orthologs; A C-terminal His-tag (pLATE31) is stated expressly only for the B. subtilis gene; also called saMnmM; saYtqB; source: E. coli BL21(DE3), purified (HisTrap HP, SEC Superdex 75)
As usually defined, the stoichiometry N is a count of units in the complex or per binding partner. Regarding B1, the “stoichiometry N” value worked out at 2.

For the origin of these results see publication PMC9976899, “Identification of a novel 5-aminomethyl-2-thiouridine methyltransferase in tRNA modification” (Nucleic Acids Research, 2023).
